Laboratory results: patent US20130336885A1 (Genentech, published 2013)

Tests used:
[1] = target: T1, gD epitope-tagged mouse LgR5 expressed on stably transfected 293 cells (mouse, UniProt Q9Z1P4 22-907); test: FACS on 293 cells stably transfected with gD epitope-tagged LgR5, 10 ug/ml antibody, R-Phycoerythrin goat anti-human detection
T1 construct: also called gD-tagged mouse LgR5
T1 sequence: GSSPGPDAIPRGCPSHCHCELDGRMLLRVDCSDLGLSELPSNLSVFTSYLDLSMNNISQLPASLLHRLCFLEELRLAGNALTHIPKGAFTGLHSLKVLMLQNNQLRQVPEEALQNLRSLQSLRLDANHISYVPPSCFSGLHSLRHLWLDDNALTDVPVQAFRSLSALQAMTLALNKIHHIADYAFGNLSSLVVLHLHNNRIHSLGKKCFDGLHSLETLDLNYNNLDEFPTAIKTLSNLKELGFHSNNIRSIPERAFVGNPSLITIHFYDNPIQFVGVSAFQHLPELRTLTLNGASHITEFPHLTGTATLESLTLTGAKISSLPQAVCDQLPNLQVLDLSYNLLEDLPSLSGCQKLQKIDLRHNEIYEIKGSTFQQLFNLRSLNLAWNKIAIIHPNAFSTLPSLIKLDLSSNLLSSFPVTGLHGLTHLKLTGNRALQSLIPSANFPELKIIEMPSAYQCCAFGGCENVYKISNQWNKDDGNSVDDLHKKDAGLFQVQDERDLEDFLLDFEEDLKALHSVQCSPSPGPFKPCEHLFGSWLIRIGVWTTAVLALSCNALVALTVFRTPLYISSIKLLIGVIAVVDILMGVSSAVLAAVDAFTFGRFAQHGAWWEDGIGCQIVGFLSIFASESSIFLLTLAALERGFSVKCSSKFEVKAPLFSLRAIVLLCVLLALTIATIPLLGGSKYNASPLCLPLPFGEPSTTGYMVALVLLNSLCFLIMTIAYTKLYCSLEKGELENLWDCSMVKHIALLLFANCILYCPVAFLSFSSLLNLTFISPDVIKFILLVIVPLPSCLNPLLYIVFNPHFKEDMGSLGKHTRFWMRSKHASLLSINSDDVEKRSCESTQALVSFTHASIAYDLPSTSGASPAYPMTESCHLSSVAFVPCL
Description: Monoclonal antibodies were tested to determine if they cross-react with LgR5 from species other than human. […] Residues that are identical among all four species are indicated by asterisks (*). […] YW353 antibody binds human and cynomolgus monkey LgR5, but not rat or mouse LgR5. Ch8E11 and hu8E11.v2 antibodies bind all four species of LgR5, although binding to rat LgR5 is not as strong as binding to human, cynomolgus monkey, or mouse LgR5. 2H6 antibody binds to human and mouse LgR5, and was not tested for binding to cynomolgus monkey or rat LgR5.

[2] = target: T2, gD epitope-tagged LgR5 22-123 (amino acids 22-123 of SEQ ID NO: 67) with a C-terminal GPI anchor on … (human, UniProt O75473 22-123, C-terminal GPI anchor); test: FACS on transiently transfected 293 cells
T2 sequence: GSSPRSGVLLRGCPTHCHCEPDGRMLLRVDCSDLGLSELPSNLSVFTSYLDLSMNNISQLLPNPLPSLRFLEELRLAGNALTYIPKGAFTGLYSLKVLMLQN

[3] = target: T3, gD epitope-tagged LgR5 424-907 (amino acids 424-907 of SEQ ID NO: 67) on transiently transfected 293 cells (human, UniProt O75473 424-907); test: FACS on transiently transfected 293 cells
T3 sequence: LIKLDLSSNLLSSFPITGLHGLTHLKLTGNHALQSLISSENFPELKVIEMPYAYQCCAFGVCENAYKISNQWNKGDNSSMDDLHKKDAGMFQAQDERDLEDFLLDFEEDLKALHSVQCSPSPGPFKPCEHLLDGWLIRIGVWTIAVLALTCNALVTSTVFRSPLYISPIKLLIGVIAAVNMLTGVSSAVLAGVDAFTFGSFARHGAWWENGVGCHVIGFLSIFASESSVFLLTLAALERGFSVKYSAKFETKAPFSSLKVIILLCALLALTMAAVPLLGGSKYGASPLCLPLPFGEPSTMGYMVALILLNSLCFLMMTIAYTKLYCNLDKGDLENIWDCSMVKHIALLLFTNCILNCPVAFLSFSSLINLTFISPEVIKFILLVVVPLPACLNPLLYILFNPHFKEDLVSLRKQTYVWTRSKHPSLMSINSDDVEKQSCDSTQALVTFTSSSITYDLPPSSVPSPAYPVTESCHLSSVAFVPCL

[4] = target: T4, gD epitope-tagged LgR5 22-323 (amino acids 22-323 of SEQ ID NO: 67) with a C-terminal GPI anchor on … (human, UniProt O75473 22-323, C-terminal GPI anchor); test: FACS on transiently transfected 293 cells
T4 sequence: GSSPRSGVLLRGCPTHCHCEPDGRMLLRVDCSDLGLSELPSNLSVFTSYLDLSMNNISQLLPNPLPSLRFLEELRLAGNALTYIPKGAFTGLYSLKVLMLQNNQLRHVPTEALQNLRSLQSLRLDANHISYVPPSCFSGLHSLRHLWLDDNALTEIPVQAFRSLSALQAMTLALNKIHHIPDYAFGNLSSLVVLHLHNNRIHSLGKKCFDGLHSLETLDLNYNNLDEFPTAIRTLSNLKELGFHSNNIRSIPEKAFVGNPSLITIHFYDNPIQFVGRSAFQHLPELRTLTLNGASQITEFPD

[5] = target: T5, human LgR5 ECD (amino acids 22-557 fused to His-Fc expressed in a baculovirus system, or amino acids 22-558 … (human, UniProt O75473 22-557)); test: SPR (BIAcore-3000), antibody captured by anti-human Fc, LgR5 ECD-Fc injected
T5 construct: not shown: C-terminal His-tagged Fc
T5 sequence: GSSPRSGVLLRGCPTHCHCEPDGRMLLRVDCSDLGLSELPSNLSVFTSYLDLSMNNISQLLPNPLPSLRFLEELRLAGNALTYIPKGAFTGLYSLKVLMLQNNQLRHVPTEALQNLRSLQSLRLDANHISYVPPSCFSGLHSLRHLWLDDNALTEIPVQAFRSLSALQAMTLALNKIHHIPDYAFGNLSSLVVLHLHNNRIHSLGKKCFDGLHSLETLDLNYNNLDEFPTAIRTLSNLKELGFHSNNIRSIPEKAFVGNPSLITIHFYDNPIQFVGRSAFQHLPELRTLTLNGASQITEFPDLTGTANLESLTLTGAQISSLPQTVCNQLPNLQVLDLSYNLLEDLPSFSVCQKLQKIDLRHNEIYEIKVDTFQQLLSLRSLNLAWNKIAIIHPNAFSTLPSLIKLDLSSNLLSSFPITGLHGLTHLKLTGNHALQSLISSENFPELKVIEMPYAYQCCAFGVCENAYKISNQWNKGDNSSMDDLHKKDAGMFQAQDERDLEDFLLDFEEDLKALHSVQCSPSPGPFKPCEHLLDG

B1: monoclonal antibody 3G12 (antibody, V domains shown)
VH: QVQLQQPGAEMVKPGASVKLSCKASVDTFNSYWMHWVKQRPGQGLEWIGEINPSNGRTNYIEKFKNRATVTVDKSSSTAFMQLSSLTSEDSAVYYCATGWYFDVWGAGTTVTVSS
VL: DVVMTQTPLSLPVSLGDQASISCRSSQSLVHSNGNTYLQWYLQKPGQSPKLLIYKVSNRFSGVPDRFSGSGSGTDFTLKISRVEAEDLGIYFCSQSTHFPYTFGGGTKLEIKR
notes: The variable domains are the same in both forms; also called m3G12; mu3G12
[1]
  binding result: binds
[2]
  binding result: no binding (tested: 10 µg/ml)
[3]
  binding result: no binding (tested: 10 µg/ml)
[4]
  binding result: no binding (tested: 10 µg/ml)
[5]
  Kd: 72 nM
